Columns and labels:
Experiment in all cases: SPR; Biacore T100, 37°C, HBS-EP; biotinylated ligand captured with the Biotin CAPture Kit, reference biotinylated rat Cd4d3+4; purified his-tagged analyte injected at 20 μl/min, equilibrium fit Req = CRmax/(C+KD); lower concentrations did not reach equilibrium, KD likely slightly overestimated
[1] = molecular target: P. falciparum P41, AVEXIS bait/prey form (P. falciparum)
[2] = molecular target: P. vivax P41 (PVX_000995, 6-cysteine protein), entire ectodomain, AVEXIS bait/prey form (P. vivax) (UniProt A5KAP6)
[3] = molecular target: P. vivax P12 (PVX_113775, 6-cysteine protein), entire ectodomain, AVEXIS bait/prey form (P. vivax) (UniProt A5K1W7)

P. vivax P12 (PVX_113775), entire ectodomain, 6-His tagged, purified (from UniProt A5K1W7 24-339) (domain or fragment)
Kd [1]: 31 nM
Kd [2]: 120 nM

P. vivax P41 (PVX_000995), entire ectodomain, 6-His tagged, purified (from UniProt A5KAP6 22-384) (domain or fragment)
Kd [3]: 77 nM

Source: PMC4689532
